From patent publication US20230242624A1 (NEURIMMUNE, published 2023)
Values joined by “and” are separate entries in the source; they are usually repeats but may differ in a detail not shown here. Equal values may be shown once. Read-outs that look alike come from different tables or passages of the source.

Columns and labels:
[1] = target: T1, SARS-CoV-2-S1 (RBD)-His protein (Trenzyme) (SARS-CoV-2, UniProt P0DTC2 319-541); experiment: direct ELISA on coated RBD-His
[2] = target: T1, SARS-CoV-2-S1 (RBD)-His protein …; experiment: direct ELISA on coated RBD-His; remark: listed apart in the source
[3] = target: T1, SARS-CoV-2-S1 (RBD)-His protein …; experiment: competition ELISA, RBD binding to coated ACE2
[4] = target: T1, SARS-CoV-2-S1 (RBD)-His protein …
[5] = target: T1, SARS-CoV-2-S1 (RBD)-His protein …; experiment: iQue flow cytometry, antigen-coated beads
[6] = target: T2, MERS-CoV Spike protein fragment (RBD, aa 367-606, His tag) (MERS-CoV, UniProt K9N5Q8 367-606); experiment: iQue flow cytometry, antigen-coated beads
T2 sequence: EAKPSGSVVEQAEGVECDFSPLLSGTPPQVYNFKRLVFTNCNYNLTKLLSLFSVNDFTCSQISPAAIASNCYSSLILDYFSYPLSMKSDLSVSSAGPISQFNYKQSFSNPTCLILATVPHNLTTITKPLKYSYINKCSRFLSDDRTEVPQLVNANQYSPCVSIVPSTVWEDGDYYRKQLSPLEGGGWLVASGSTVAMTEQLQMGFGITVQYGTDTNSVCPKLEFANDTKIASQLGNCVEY

[7] = target: recombinant SARS-CoV Spike protein (RBD, His tag) (SARS-CoV, UniProt P59594 306-527); experiment: iQue flow cytometry, antigen-coated beads
[8] = target: T1, SARS-CoV-2-S1 (RBD)-His protein …; experiment: competition ELISA, RBD binding to coated ACE2; IgG1
[9] = target: SARS-CoV-2 Spike (S) protein on vesicular stomatitis virus (VSV) pseudoviruses (SARS-CoV-2, UniProt P0DTC2 14-1273); experiment: cell-based or functional assay
[10] = target: T1, SARS-CoV-2-S1 (RBD)-His protein …; remark: listed apart in the source
[11] = target: SARS-CoV-2 Spike Protein (S1+S2 ECD, His-Tag) (Sino 40589-V08B1) (SARS-CoV-2, UniProt P0DTC2 14-1213)
[12] = target: T1, SARS-CoV-2-S1 (RBD)-His protein …; remark: listed apart in the source
[13] = target: T1, SARS-CoV-2-S1 (RBD)-His protein …; experiment: direct ELISA on coated RBD-His (FIG. 1C); IgG1

B1: NI-607.531_C8 (antibody, V domains shown)
VH: EVQLVESGGGVVQPGRSLRLSCTASGFTFSFYSVHWVRQAPGKGLEWVAVISYDGSTKYYADSVKGRFTISRDNSKNTLYLQMDSLRTEDTAVYYCASPPISPIPAAGTPLAYWGQGTLVTVSS
VL: not shown
Q: For B1, which EC50 [1] is on record?
A: ~0.017 nM

Q: What about the EC50 [2] of the same binder?
A: 0.011 nM

Q: What about the IC50 [3] of the same binder?
A: 0.153 nM

Q: What about the “IC50 (read off the curve)” value [4] of the same binder?
A: ~0.03 µg/mL

Q: What about the EC50 [5] of the same binder?
A: 1.2 nM

Q: What about the EC50 [6] of the same binder?
A: 1000 nM

Q: What about the EC50 [7] of the same binder?
A: 1000 nM

Q: And the IC50 [8]?
A: ~0.132 µg/mL

Q: And the “IC50, pseudovirus entry assay (luciferase, HEK 293T-ACE2 cells)” value [9]?
A: 86.4 ng/mL and 0.572 nM

B2: NI-607.649_B11 (antibody, V domains shown)
VH: QVQLVQSGAEVKKPGSSVKVSCKASGGTFSNYAISWVRQAPGQGLEWMGGIIPIFGTANYAQKFQGRVTITADESTSTAYMELSSLRSEDTAVYYCAGDRWYYDSSGYPTPDEYFQHWGQGTQVTVSS
VL: QSVLTQPPSVSGAPGQRVTISCTGSSSNIGAGYDVHWYQQLPGTAPKLLIYGNSNRPSGVPDRFSGSKSGTSASLAITGLQAEDEADYYCQSYDSSLSGVVFGGGTKLTVL
Q: With B2 as the binder, how does the EC50 [10] read?
A: 0.036 nM

Q: And the EC50 [1]?
A: ~0.021 nM

Q: And the EC50 [2]?
A: 0.027 nM

Q: What about the “EC50 (read off the curve)” value [11] of the same binder?
A: ~0.5 nM

Q: What about the “EC50 (read off the curve)” value [12] of the same binder?
A: ~4 nM

Q: What about the IC50 [3] of the same binder?
A: 0.08 nM

Q: And the “IC50 (read off the curve)” value [4]?
A: ~0.04 µg/mL

Q: And the EC50 [5]?
A: 1.4 nM

Q: What about the EC50 [6] of the same binder?
A: 1000 nM

Q: And the EC50 [7]?
A: 1.7 nM

Q: And the IC50 [8]?
A: ~0.052 µg/mL

Q: And the EC50 [13]?
A: ~0.013 nM

Q: What about the “IC50, pseudovirus entry assay (luciferase, HEK 293T-ACE2 cells)” value [9] of the same binder?
A: 232 ng/mL and 1.53 nM
